In one experiment the target is HLA-A*26:01. As to the kind of experiment: IEDB peptide-MHC binding, purified MHC/competitive/radioactivity; filed as Kd, often an IC50 or EC50 that approximates it; ≥ and ≤ were set here for values at or beyond the usual limits of such assays.
The next experiment concerns the target HLA-A*24:02. Described as above.
The target of the next experiment is HLA-A*23:01. The experiment is described as above.
The target of another experiment is HLA-A*29:02. Described as above.
The next experiment has as its target HLA-A*30:02. The experiment is described as above.
Experiment [1] concerns the target HLA-A*01:01. The experiment is described as above.
The target in experiment [2] is HLA-A*02:01. As to the kind of experiment: IEDB peptide-MHC binding, purified MHC/competitive/fluorescence; filed as Kd, often an IC50 or EC50 that approximates it; ≥ and ≤ were set here for values at or beyond the usual limits of such assays.
The target of a further experiment is HLA-A*31:01. As to the kind of experiment: IEDB peptide-MHC binding, purified MHC/direct/fluorescence; filed as Kd, often an IC50 or EC50 that approximates it; ≥ and ≤ were set here for values at or beyond the usual limits of such assays. The conditions noted are these: source organism: Entamoeba histolytica HM-1:IMSS.
In another experiment the target is HLA-A*03:01. Described as above.
A further experiment deals with HLA-B*08:01. As to the kind of experiment: IEDB peptide-MHC binding, purified MHC/competitive/radioactivity; filed as Kd, often an IC50 or EC50 that approximates it; ≥ and ≤ were set here for values at or beyond the usual limits of such assays.
A further experiment has as its target HLA-A*11:01. As to the kind of experiment: IEDB peptide-MHC binding, purified MHC/direct/fluorescence; filed as Kd, often an IC50 or EC50 that approximates it; ≥ and ≤ were set here for values at or beyond the usual limits of such assays.
Another experiment deals with HLA-B*27:05. The description is as above. The conditions noted are these: source organism: Homo sapiens.
Experiment [3] has as its target HLA-A*01:01. Described as above. The following applies: source organism: Homo sapiens.
The next experiment deals with HLA-A*32:01. Nature of the experiment: IEDB peptide-MHC binding, purified MHC/competitive/radioactivity; filed as Kd, often an IC50 or EC50 that approximates it; ≥ and ≤ were set here for values at or beyond the usual limits of such assays.
The next experiment addresses HLA-A*69:01. As to the kind of experiment: IEDB peptide-MHC binding, purified MHC/direct/fluorescence; filed as Kd, often an IC50 or EC50 that approximates it; ≥ and ≤ were set here for values at or beyond the usual limits of such assays.
In experiment [4] the target is HLA-A*02:01. The experiment is described as above. The following applies: source organism: Pseudomonas aeruginosa.
The target in the next experiment is HLA-B*58:01. The description is as above. The conditions noted are these: source organism: SARS-CoV1.
Where [5] appears, read: source organism: SARS coronavirus Tor2.
The mark [6] stands for this setting: source organism: Dengue virus 2 Jamaica/1409/1983.
[7] abbreviates: source organism: Vaccinia virus WR.
[8] abbreviates: source organism: Mycobacterium tuberculosis.
Setting [9] is: source organism: Mammarenavirus machupoense.
Where [10] appears, read: source organism: Lassa virus Josiah.
[11] abbreviates: source organism: Dengue virus 1 Brazil/97-11/1997.
[12] abbreviates: source organism: Mammarenavirus brazilense.

Kd data for 33 sequences are collected here from the Immune Epitope Database (IEDB).

A value given as a limit tells only on which side of the number the result lay.

Consider DSKEGFFTY, for which the Kd in the experiment with HLA-A*26:01 (setting [5]) is 993 nM; with HLA-A*24:02 (setting [5]), ≥ 77600 nM; in the experiment with HLA-A*23:01 (setting [5]), ≥ 77800 nM; in the experiment with HLA-A*29:02 (setting [5]), 663 nM; with HLA-A*30:02 (setting [5]), 237 nM; in the experiment with HLA-A*01:01 [1] (setting [5]) it was 200 nM.

Sequence IIIPFIAYFV gave a Kd with HLA-A*02:01 [2] (source organism: Variola virus) of 50.5 nM.

For the sequence LLEIKDKEQY, the dissociation constant Kd is ≥ 82800 nM with HLA-A*26:01 (setting [5]); 10900 nM in the experiment with HLA-A*24:02 (setting [5]); ≥ 70000 nM with HLA-A*23:01 (setting [5]); 3530 nM in the experiment with HLA-A*29:02 (setting [5]); 1270 nM with HLA-A*30:02 (setting [5]); 936 nM in the experiment with HLA-A*01:01 [1] (setting [5]).

On to ANKWYFAPR, for which the Kd with HLA-A*31:01 was 1.4 nM; in the experiment with HLA-A*03:01 (source organism: Entamoeba histolytica HM-1:IMSS), ≥ 20000 nM.

Turning to IGMNSRSTSL, in the experiment with HLA-B*08:01 (setting [6]), the Kd was 107 nM.

On to RFLYIIKLVF, for which the Kd came to 16600 nM in the experiment with HLA-A*26:01 (setting [5]); 13.3 nM with HLA-A*24:02 (setting [5]); 0.0321 nM with HLA-A*23:01 (setting [5]); 1050 nM with HLA-A*29:02 (setting [5]); 1190 nM with HLA-A*30:02 (setting [5]); 1060 nM with HLA-A*01:01 [1] (setting [5]).

In the case of GRIDKPILK, the Kd with HLA-A*11:01 (source organism: Homo sapiens) is 8150 nM; with HLA-B*27:05, 790 nM; in the experiment with HLA-A*03:01 (source organism: Homo sapiens), 13500 nM; with HLA-A*01:01 [3], ≥ 53500 nM.

In the case of ELKEKSVKF, the Kd in the experiment with HLA-B*08:01 (setting [7]) was 3.19 nM.

Take NLIIHTAAL: the Kd with HLA-B*08:01 (setting [7]) amounted to 1.55 nM.

With SIYRMSYQF, the Kd in the experiment with HLA-A*32:01 (setting [7]) is 0.798 nM.

Consider YRIAKFLFM, for which, in the experiment with HLA-B*08:01 (setting [7]), the Kd is 16.8 nM.

As for MFGTRKNSF, the Kd with HLA-B*08:01 (setting [7]) is 2.04 nM.

RVMVSPLAV had a Kd with HLA-A*02:01 [2] (source organism: Influenza A virus H3N2) of 0.9 nM.

Turning to DMYDQQLSV, the Kd was 32 nM in the experiment with HLA-A*69:01 (source organism: Pseudomonas aeruginosa) and 262 nM with HLA-A*02:01 [4].

As to RKKARNTPF, in the experiment with HLA-B*08:01 (source organism: Dengue virus 2 Peru/IQT2913/1996), the Kd came out at 82.7 nM.

As for SQMERFNCS, in the experiment with HLA-B*08:01 (source organism: Vaccinia virus Copenhagen), the Kd amounted to 38.8 nM.

In the experiment with HLA-A*02:01 [2] (source organism: Influenza A virus (A/Memphis/1/1978(H1N1))), ILHLILWIL displayed an equilibrium dissociation constant (Kd) of 6000 nM.

Regarding ILSDDAVVCY, the Kd is ≥ 38800 nM with HLA-A*26:01 (setting [5]); ≥ 70300 nM with HLA-A*24:02 (setting [5]); ≥ 70000 nM with HLA-A*23:01 (setting [5]); 320 nM in the experiment with HLA-A*29:02 (setting [5]); 2100 nM in the experiment with HLA-A*30:02 (setting [5]); 10.2 nM with HLA-A*01:01 [1] (setting [5]).

Turning to DYAEISFML, the dissociation constant (Kd) with HLA-A*26:01 (setting [5]) was ≥ 68900 nM; in the experiment with HLA-A*24:02 (setting [5]) it was ≥ 105000 nM; in the experiment with HLA-A*23:01 (setting [5]), ≥ 90700 nM; with HLA-A*29:02 (setting [5]), 100 nM; in the experiment with HLA-A*30:02 (setting [5]), 440 nM; in the experiment with HLA-A*01:01 [1] (setting [5]) it was ≥ 22500 nM.

In the experiment with HLA-A*69:01 (setting [8]), LLHEVGITV had a Kd of 1920 nM.

On to RAEVSLHEV, for which the Kd in the experiment with HLA-A*26:01 (setting [9]) was ≥ 77900 nM; with HLA-A*24:02 (setting [9]), ≥ 77500 nM; with HLA-A*23:01 (setting [9]) it was ≥ 77700 nM; with HLA-A*29:02 (setting [9]), ≥ 78900 nM; with HLA-A*30:02 (setting [9]), ≥ 41200 nM; in the experiment with HLA-A*01:01 [1] (setting [9]), ≥ 66200 nM.

Regarding RLPNLFHIL, the Kd with HLA-B*08:01 (setting [7]) was determined as 68.5 nM.

As to TKQTGSASSM, the Kd in the experiment with HLA-B*08:01 (setting [6]) amounted to 1440 nM.

With FLMGFNRDV, the Kd in the experiment with HLA-A*69:01 (setting [8]) is 1760 nM.

Consider YCNYSKYWY, for which the Kd in the experiment with HLA-A*26:01 (setting [10]) was ≥ 77900 nM; in the experiment with HLA-A*24:02 (setting [10]), ≥ 44400 nM; with HLA-A*23:01 (setting [10]) it was 13600 nM; with HLA-A*29:02 (setting [10]), 713 nM; with HLA-A*30:02 (setting [10]), 668 nM; in the experiment with HLA-A*01:01 [1] (setting [10]), 15800 nM.

With SIKSKSRRL, the Kd with HLA-B*08:01 (setting [7]) was 29.8 nM.

As to IDNVHTWTEQ, the equilibrium dissociation constant (Kd) with HLA-A*32:01 (source organism: Dengue virus 4 Philippines/H241/1956) was 9850 nM.

As to TPMMRHTIE, the Kd with HLA-B*08:01 (setting [11]) amounted to 7.23 nM.

For MTCGQPLSL, in the experiment with HLA-A*32:01 (setting [7]), the Kd is 5.56 nM.

With ELINKFVEL, in the experiment with HLA-B*08:01 (setting [7]), the Kd worked out at 1040 nM.

Take KTTFKPNTW: the Kd with HLA-A*11:01 (source organism: SARS-CoV1) is ≥ 32600 nM; with HLA-B*58:01, 157 nM.

With EQMQRKHGGM, the Kd in the experiment with HLA-B*08:01 (setting [11]) is 86 nM.

Regarding GSDDIRRLV, the Kd with HLA-A*26:01 (setting [12]) was ≥ 77900 nM; with HLA-A*24:02 (setting [12]), ≥ 77500 nM; with HLA-A*23:01 (setting [12]), ≥ 77700 nM; in the experiment with HLA-A*29:02 (setting [12]), ≥ 78900 nM; in the experiment with HLA-A*30:02 (setting [12]), ≥ 76900 nM; in the experiment with HLA-A*01:01 [1] (setting [12]), ≥ 44500 nM.
